# Numbered stars: 1 amine (or outer) side, 2 acyl side, 3 side chain; on linkers, the order of the positions; unused ones are H or OH. Bridge positions count the residues as written; N and C are the ends. Square brackets hold non-standard residues; d marks the D form. Peptide text beside a SMILES is read from it. * marks the point of attachment. X1 = COc1cc2cc(c1Cl)N(C)C(=O)C[C@H](OC(=O)[C@H](C)N(C)C(=O)CCSSC(C)CCC(=O)*)[C@]1(C)O[C@H]1[C@H](C)[C@@H]1C[C@@](O)(NC(=O)O1)[C@H](OC)/C=C/C=C(\C)C2; 1Nal = N[C@@H](Cc1cccc2ccccc12)C(=O)O; TBMB = c1c(C[*:1])cc(C[*:3])cc1C[*:2]; Tle = CC(C)(C)[C@H](N)C(=O)O; βAla = NCCC(=O)O; Sar = CNCC(=O)O
# Assays:
# [1] = Intrinsic clearance in cryopreserved hepatocytes; assay type: in vitro ADME
# Protocol: Accumulation of the majority of the radioactivity was found in the kidney and bladder irrespective of the labelled peptide dose; this is indicative of either non-saturable excretion or proteolysis followed by excretion through the kidneys. Furthermore, the intrinsic clearance of BT1718 and its Bicycle component, N241 was low when measured in cryopreserved hepatocytes. […] Unconjugated DM1, when radiolabelled, (as [[^3H]-DM1 (91 μCi/kg, 200 μg/kg, IV), was reported to distribute rapidly and extensively to the lungs, liver, kidney, spleen, heart, gastrointestinal tract, and adrenal glands in the rat. The major route of excretion of DM1 was through the bile/faeces, with a minimal amount excreted in the urine, a completely different distribution to BT1718 and its metabolites with little and short lived accumulation seen in other organs such as heart, liver, GI and lungs which would imply that these organs maybe spared systemic toxicity.
# [2] = Stability in whole blood in vitro, dog; assay type: in vitro ADME; details: 37° C.
# Protocol: (§1) The stability of BT1718 was assessed in plasma and whole blood from humans, monkey, dog, mouse and rat. […] The mechanism for the difference in stability of the BT1718 peptide in whole blood between the different species is unknown.
# [3] = Crl:WI(Han) rat non-GLP tox study toxicokinetics; assay type: in vivo, Crl: WI(Han) rats; details: male, plasma, iv
# [4] = Sprague Dawley rat PK study; assay type: in vivo; details: plasma, 15 mg/m2, male, 15 mg/m^2 IV
# [5] = Stability in whole blood in vitro, human; assay type: in vitro ADME; details: 37° C.
# Protocol: as §1
# [6] = Stability in whole blood in vitro, mouse; assay type: in vitro ADME; details: 37° C.
# Protocol: as §1
# [7] = Plasma protein binding, rat; assay type: in vitro ADME, rats; details: read-out: free fraction
# Protocol: Plasma protein binding of BT1718 was also assessed. The mean plasma protein binding of the BT1718 peptide ranged from 87% to 98%, with the free fraction of BT1718 being 13% in human, 2.6% in rats, 7.5% in mice, 3.8% in monkey and 1.5% in dog plasma, the results had no correlation to the plasma and whole blood stability data. […] Plasma protein binding of unconjugated DM1, has previously been reported, with the unbound fraction being 7% in human and monkey and 3% in rat.
# [8] = GLP-compliant 28-day repeat dose toxicity study, rat; assay type: in vivo
# Protocol: In a GLP-compliant study in Cynomolgus monkeys, the highest non-severely toxic dose (HNSTD) of BT1718 was established to be 18 mg/m^2 administered twice weekly, equivalent to a human dose of 0.48 mg/kg. In a GLP-compliant study in the rat, the MTD was not reached with the highest administered dose 6 mg/m^2 twice weekly. At this dose level, there was kidney toxicity (with no effect on clinical condition) and also testicular toxicity. After 28 days off-dose, there was evidence of partial recovery of kidney-related findings, but no recovery of testicular effects at this dose level. […] Therefore, the MTD for rat for twice weekly dosing was considered to be between 1 and 1.5 mg/kg.
# [9] = test system: advanced solid tumors; assay: Phase I/IIa trial of BT1718 in patients with advanced solid tumors: safety and efficacy; assay type: in vivo
# Description: This is a multi-center, FIH, Phase I/IIa, open label dose escalation trial with an expansion phase, in patients with advanced solid tumors.
# A DLT is defined as a probably or highly probably drug-related AE occurring during Cycle 1 (i.e. the first 28 days) which fulfils one or more of the following criteria, despite appropriate supportive clinical management (however, all clinically significant toxicities will be considered in dose review decisions and the determination of the Phase II dose): • Neutropenia Grade 4 (absolute neutrophil count [ANC]<0.5×10^9/L) for ≥seven days *see note; • Febrile neutropenia with Grade 3 or 4 neutropenia ANC <1.0×10^9/L and a single temperature of […] or a sustained temperature ≥38° C. for more than one hour); • Clinically significant infection (documented clinically or microbiologically) with Grade 3 or 4 neutropenia (ANC <1.0×10^9/L); • Thrombocytopenia Grade 4: a) for ≥five days *see note, or b) associated with active bleeding, or c) requiring platelet transfusion. • Grade 3 or 4 toxicity to organs other than the bone marrow, EXCLUDING: Grade 3 nausea; • Grade 3 or 4 vomiting in patients who have not received optimal treatment with anti-emetics; or • Grade 3 or 4 diarrhoea in patients who have not received optimal treatment with anti-diarrhoeals. • Transient, asymptomatic Grade 3 biochemical abnormalities if agreed by the Sponsor and the Study Team, including the Chief Investigator (CI). • Fatal event; • Any other related toxicity which leads to discontinuation of treatment in Cycle 1, or to a delay in dosing of >7 days (excluding where the delay is >7 days due to scheduling rather than a clinical decision); • Any other related toxicity that is greater than at baseline and is judged to be a DLT by the Sponsor, including the CI and Principal Investigators (PIs).
# Definitions of disease status is in accordance with RECIST (Response Evaluation Criteria in Solid Tumors) 1.1, based on documentation of target and non-target lesions as specified in the BT1718 study protocol. All clinical measurements to assess response must be performed within one week of the first dose of BT1718.
# An open label, first in human phase Ulla study of once-weekly (QW) and twice-weekly (BIW) dosing schedules in patients with advanced solid tumours was undertaken.
# 4-week cycle: 1 hour intravenous (IV) infusions for 3 weeks, followed by a 1 week break.
# [10] = rat GLP, 1 mg/kg (6 mg/m^2) twice weekly
# [11] = rat GLP, males 1 mg/kg (6 mg/m^2) twice weekly
smiles,measurement,setting,value
COc1cc2cc(c1Cl)N(C)C(=O)C[C@H](OC(=O)[C@H](C)N(C)C(=O)CCSSC(C)CCC(=O)NCCC(=O)N(C)CC(=O)N(C)CC(=O)N(C)CC(=O)N(C)CC(=O)N(C)CC(=O)N(C)CC(=O)N(C)CC(=O)N(C)CC(=O)N(C)CC(=O)N(C)CC(=O)N[C@@H](C)C(=O)N[C@H]1CSCc3cc4cc(c3)CSC[C@H](NC(=O)[C@@H](C)NC(=O)[C@H](Cc3cccc5ccccc35)NC(=O)[C@H](CCC(=O)O)NC(=O)[C@H](CC(N)=O)NC(=O)[C@@H](C)NC1=O)C(=O)N[C@@H](CCC(=O)O)C(=O)N[C@@H](CC(=O)O)C(=O)N[C@@H](Cc1ccccc1)C(=O)N[C@@H](Cc1ccc(O)cc1)C(=O)N[C@@H](CC(=O)O)C(=O)N[C@@H](C(C)(C)C)C(=O)N[C@H](C(N)=O)CSC4)[C@]1(C)O[C@H]1[C@H](C)[C@@H]1C[C@@](O)(NC(=O)O1)[C@H](OC)/C=C/C=C(\C)C2 (stereo partly drawn) [BT1718] ({X1-βAla}-[Sar][Sar][Sar][Sar][Sar][Sar][Sar][Sar][Sar][Sar]AC[dA]NE[1Nal][dA]CEDFYD[Tle]C-NH2; linker 12-18-25 via TBMB (inferred)),intrinsic clearance,[1],low
same,half-life,[2],> 24 h
same,Cmax,"[3]; 1.2 mg/m2, read-out: C0/Cmax",100 ± 10 nM
same,Cmax,"[3]; 6 mg/m2, read-out: C0/Cmax",400 ± 140 nM
same,AUC,[4],1.5 ± 0.2 µM·h
same,clearance,[4],9.4 ± 1.1 mL/min/kg
same,half-life,[4],0.56 ± 0.11 h
same,Cmax,[4]; read-out: C0/Cmax,4200 ± 1100 nM
same,Vd,[4]; read-out: Vdss,0.29 ± 0.03 L/kg
same,half-life,[5],2 to 4 h
same,half-life,[6],> 24 h
same,fraction unbound,[7],0.026
same,GI-related findings,[8]; GLP rat,No GI-related findings
same,bladder changes,[8]; GLP rat,No bladder changes
same,MTD,"[8]; GLP rat, highest administered dose 6 mg/m^2 twice weekly",not reached
same,MTD at 28 day,"[8]; in vivo, intravenous, considered from GLP and non-GLP rat studies, read-out: MTD for rat for twice weekly dosing",1 to 1.5 mg/kg
same,anti-drug antibodies (ADAs) in serum,[8]; rat 28-day GLP study,negative
same,hepatic findings,"[8]; rat GLP 28 day, 1 mg/kg (6 mg/m^2) twice weekly",minimal to slight reversible hepatocellular atrophy
same,"raised ALP, AST and cholesterol, from control values","[8]; rat GLP 28 day, 1 mg/kg twice weekly",≤ 1.5 ×
same,"erythrocyte parameters, maximum drop",[8]; [10],0.64 ×
same,"increase in platelets, maximum",[8]; [10],2.3 ×
same,reduction in reticulocytes,"[8]; rat GLP, 1 mg/kg (6 mg/m^2) twice weekly, females",0.37 ×
same,reduction in reticulocytes,"[8]; rat GLP, 1 mg/kg (6 mg/m^2) twice weekly, males",0.06 ×
same,reproductive organ findings,"[8]; rat GLP, all males 1 mg/kg (6 mg/m^2) twice weekly",testicular degeneration/atrophy of the seminiferous tubules and the absence of sperm
same,incidence of minimal hypertrophy of the zona glomerulosa,"[8]; rat GLP, females 1 mg/kg (6 mg/m^2) twice weekly",5 of 10
same,incidence of minimal hypertrophy of the zona glomerulosa,"[8]; rat GLP, males 0.2 mg/kg (1.2 mg/m^2) twice weekly",2 of 10
same,incidence of minimal hypertrophy of the zona glomerulosa,"[8]; rat GLP, males 0.5 mg/kg (3 mg/m^2) twice weekly",3 of 10
same,adrenal gland terminal weights,[8]; [11],significantly lower terminal weights
same,incidence of minimal hypertrophy of the zona glomerulosa,[8]; [11],4 of 10
same,onset dose of renal tubular epithelial degeneration,"[8]; rat GLP, twice weekly",0.2 mg/kg
same,axonal degeneration,[8]; rat study,not observed
same,DLTs,[9]; 9.6 mg/m^2 BIW (cohort 5),"2×DLTs (GGT, fatigue) and increased GGT (grade 4) and fatigue (grade 3)"
same,"Drug-related Alanine aminotransferase increased, number of patients, n = 28 (frequency)","[9]; human, in vivo",8 (28.6%)
same,"Drug-related Anaemia, number of patients, n = 28 (frequency)","[9]; human, in vivo",7 (25.0%)
same,"Drug-related Aspartate aminotransferase increased, number of patients, n = 28 (frequency)","[9]; human, in vivo",9 (32.1%)
same,"Drug-related Blood alkaline phosphatase increased, number of patients, n = 28 (frequency)","[9]; human, in vivo",5 (17.9%)
same,"Drug-related Decreased appetite, number of patients, n = 28 (frequency)","[9]; human, in vivo",9 (32.1%)
same,"Drug-related Diarrhea, number of patients, n = 28 (frequency)","[9]; human, in vivo",10 (35.7%)
same,"Drug-related Fatigue, number of patients, n = 28 (frequency)","[9]; human, in vivo",9 (32.1%)
same,"Drug-related Gamma-glutamyltransferase increased, number of patients, n = 28 (frequency)","[9]; human, in vivo",5 (17.9%)
same,"Drug-related Lethargy, number of patients, n = 28 (frequency)","[9]; human, in vivo",6 (21.4%)
same,"Drug-related Nausea, number of patients, n = 28 (frequency)","[9]; human, in vivo",12 (42.9%)
same,"Drug-related Neuropathy peripheral, number of patients, n = 28 (frequency)","[9]; human, in vivo",9 (32.1%)
same,"Drug-related Vomiting, number of patients, n = 28 (frequency)","[9]; human, in vivo",9 (32.1%)
same,Grade 1-2 related peripheral neuropathy,"[9]; human, in vivo",occurred more commonly with increasing dose
same,RP2D for twice weekly dosing,"[9]; human, in vivo",7.2 mg/m^2
same,patients with related grade 1-3 gastrointestinal disorders,"[9]; including nausea, diarrhea and vomiting",18/28
same,tolerability,"[9]; once weekly dosing, dose levels tested",tolerable
